Measured values: US20230212306A1 (Daiichi Sankyo, published 2023)

T1: human TLR7-Flag-His×6 (human TLR7 variant 2), expressed in Ba/F3 cells together with human Unc93B1-HA×2 (human, UniProt Q9NYK1 27-1049)
T1 construct: Cells were permeabilised with 0.1% saponin before staining; also called hTLR7-Flag-His×6; not shown: Flag-His×6 tag added to the C-terminus
T1 sequence: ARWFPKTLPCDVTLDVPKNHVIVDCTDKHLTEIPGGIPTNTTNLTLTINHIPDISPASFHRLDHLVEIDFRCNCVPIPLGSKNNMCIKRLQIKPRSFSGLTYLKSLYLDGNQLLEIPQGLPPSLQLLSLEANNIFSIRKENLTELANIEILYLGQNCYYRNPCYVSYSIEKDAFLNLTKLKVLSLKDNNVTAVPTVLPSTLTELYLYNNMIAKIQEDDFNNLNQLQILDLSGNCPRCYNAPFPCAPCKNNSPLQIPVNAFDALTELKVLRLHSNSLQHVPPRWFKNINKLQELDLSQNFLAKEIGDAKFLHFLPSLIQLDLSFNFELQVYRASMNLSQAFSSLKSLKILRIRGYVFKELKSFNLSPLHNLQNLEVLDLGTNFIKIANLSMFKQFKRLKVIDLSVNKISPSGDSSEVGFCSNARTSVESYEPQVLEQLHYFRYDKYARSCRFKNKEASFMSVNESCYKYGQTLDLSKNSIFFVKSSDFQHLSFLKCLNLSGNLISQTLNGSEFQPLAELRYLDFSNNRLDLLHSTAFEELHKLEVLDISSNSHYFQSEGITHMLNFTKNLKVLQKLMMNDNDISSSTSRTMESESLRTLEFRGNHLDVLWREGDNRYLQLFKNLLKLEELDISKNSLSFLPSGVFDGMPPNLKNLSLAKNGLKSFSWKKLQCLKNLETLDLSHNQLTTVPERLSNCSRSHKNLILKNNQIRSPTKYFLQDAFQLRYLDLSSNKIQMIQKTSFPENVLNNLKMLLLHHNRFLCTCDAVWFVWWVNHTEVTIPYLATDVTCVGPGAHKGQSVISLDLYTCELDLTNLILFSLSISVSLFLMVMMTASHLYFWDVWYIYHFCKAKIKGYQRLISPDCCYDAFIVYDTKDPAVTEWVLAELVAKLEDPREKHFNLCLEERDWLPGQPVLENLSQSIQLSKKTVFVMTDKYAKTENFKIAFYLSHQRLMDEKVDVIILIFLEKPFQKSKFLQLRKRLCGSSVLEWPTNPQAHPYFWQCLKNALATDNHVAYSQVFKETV

B1: cAT01 antibody (antibody, human IgG1, V domains shown)
VH: QVQLQQPGAELVKPGASVNLSCKASGYTFTNNWLHWVKQRPGRGLEWIGDIYPSNGRTNYNEQFKTKATLTVDKSSSTAYMQLSSLTSEDSAVYFCARERGYFDYWGQGTALTVSS
VL: DIQMTQSPSSLSTSLGGKVTITCKASQDINKYIAWYQHKPGKGPRLLIHYTSTLQPGIPSRFSGSGSGRDYSFSISNLEPEDIATYYCLQYDYLLTFGAGTKLELKR
notes: Mouse variable regions on human IgG1 / human kappa constant regions; also called chimeric AT01 antibody; AT01 chimeric anti-human TLR7 antibody
B2: cNB7 antibody (antibody, human IgG1, V domains shown)
VH: DVQLQESGPGLVKPSQSLSLTCTVTGYSITSDYAWNWIRQFPGNKLEWMGHISYRGNTNYNPSLKSRISITRDTSKNQFFLQLNSVTTEDTATYYCASWNYYGYVDYAMDYWGQGTSVTVSS
VL: DIQMTQTPSSLSASLGDRVTISCRASQDISNYLNWYQQKPDGTVKLLIYYTSRLHSGVPSRFSGSGSGTDYSLTINNLEQEDIATYFCQQGDTFPTFGGGTKLEIKR
notes: Mouse variable regions on human IgG1 / human kappa constant regions; also called chimeric NB7 antibody; NB7 chimeric anti-human TLR7 antibody
B3: cFAN2 antibody (antibody, human IgG1, V domains shown)
VH: QVQLKESGPGLVAPSQSLSITCTVSGFSLTGYGVNWVRQPPGKGLEWLGMIWGDGSTDYNSALKSRLSIRKDNSKSQVFLKMNSLQTDDTARYYCARDKGYDGYYYAMDYWGQGTSVTVSS
VL: DIQMTQSPASLSASVGETVTITCRASENIYSYLAWYQQKQGKSPQLLVYDAKTLAEGVPSRFSGSGSGTQFSLKINSLQPEDFGSYYCQHHYGIPYTFGGGTKLEIKR
notes: Mouse variable regions on human IgG1 / human kappa constant regions; also called chimeric FAN2 antibody; FAN2 chimeric anti-human TLR7 antibody

Target: T1, human TLR7-Flag-His×6 (human TLR7 …)
Assay: flow cytometry (MFI), antibody dilution series on saponin-permeabilised Ba/F3 cells expressing human TLR7-Flag-His×6/hUnc93B1-HA×2
Procedure: A Ba/F3 cell line expressing human TLR7-Flag-His×6/hUnc93B1-HA×2 was subjected to membrane permeation with 0.1% Saponin and stained using the dilution series of chimeric AT01 antibody, NB7 antibody, and FAN2 antibody at the antibody concentrations obtained in Example 4, and the secondary antibody, Goat anti-human IgG Fc-PE (eBioscience). The binding activity of each antibody was evaluated by comparing the MFI based on flow cytometry analysis.

Binder	binding result
B1	binds
B2	binds
B3	binds
